Data: patent US20120225088, “COMPOSITIONS AND METHODS FOR TREATING CANCER AND OTHER DISEASES” (published 2012)

Columns and labels:
Conditions in all cases: tags: endogenous on Ramos Burkitt's lymphoma cells; label: 5' FITC or Cy3; stem-loop hairpin
[1] = biological target: T1, membrane-bound IgM (mIgM, immunoglobulin heavy mu chain of B-cell receptor) (Homo sapiens, UniProt P01871 P01871:1-474); assay: flow; Bmax/2 (Kd') on Ramos cells, 4 C, 5 mM MgCl2
Protocol: (§1) All the in vitro experiments were done using a binding buffer composed of RPMI 1640 and 4.5 g/L glucose (Sigma-Aldrich) and 5 mM MgCl₂ for monomers, 20 mM MgCl₂ for multimers (Sigma-Aldrich), 100 mg/L tRNA (Sigma-Aldrich), 100 mg/L single stranded DNA (Sigma-Aldrich), 100 mg/L BSA (Sigma-Aldrich) and binding was analyzed for binding using flow cytometry in binding buffer (Acurri C6) using binding buffer. We used 20 mM Mg⁺² for optimal for the folding of the aptamer in vitro and 5 mM Mg⁺² for experiments in vivo. The binding buffer consists of tRNA and single stranded DNA that are capable of scavenging Mg⁺² thereby reducing the effective concentration of Mg ions. […]
(§2) Cell Binding Assays. Affinity of each construct was evaluated by incubating Ramos cells (2.5×10⁵) with a series of FITC or Cy3 labeled constructs in a 50 μL of binding buffer on ice for 45 min Cells were then washed with lmL of wash buffer at 4° C. and resuspended in 100 μL of wash buffer. The binding of the constructs was analyzed using flow cytometry by counting 10,000 events for each concentration. […] Binding at respective concentrations and absolute fluorescence intensity difference was used for the binding curves. When calculating the relative binding constant, binding curves were fitted with median fluorescence intensity observed for each histogram and observed Bmax/2 was used as the binding constant. […]

[2] = biological target: T1, membrane-bound IgM (mIgM, …); assay: flow; Bmax/2 on Ramos cells, 4 C, 5 mM MgCl2
Protocol: as §1, §2

[3] = biological target: T1, membrane-bound IgM (mIgM, …); assay: flow; Bmax/2 on Ramos cells, 4 C
Protocol: as §1, §2

T1 sequence (P01871 whole entry, one chain of several): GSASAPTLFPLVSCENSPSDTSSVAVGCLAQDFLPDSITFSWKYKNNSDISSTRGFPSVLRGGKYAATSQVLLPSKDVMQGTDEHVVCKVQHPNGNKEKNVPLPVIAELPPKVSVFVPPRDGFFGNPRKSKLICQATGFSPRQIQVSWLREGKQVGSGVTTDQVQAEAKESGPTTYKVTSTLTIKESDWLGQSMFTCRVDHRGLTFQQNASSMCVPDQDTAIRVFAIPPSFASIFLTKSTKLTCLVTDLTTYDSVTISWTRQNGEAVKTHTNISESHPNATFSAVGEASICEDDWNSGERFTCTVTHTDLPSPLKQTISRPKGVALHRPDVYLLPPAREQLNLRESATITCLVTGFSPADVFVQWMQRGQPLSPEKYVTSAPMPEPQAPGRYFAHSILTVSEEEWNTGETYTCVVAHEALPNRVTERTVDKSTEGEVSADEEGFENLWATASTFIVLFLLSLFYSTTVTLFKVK

Binder	Kd [2] [nM]	also measured
ACCGTGGAGGATAGTTCGGTGGCTGTTCAGGGTCTCCTCCACGGT (ssDNA) [TD05]	–	Kd [1]: 359 nM
CGTGGAGGATAGTTCGGTGGCTTCAGGGTCTCCTCCCG (ssDNA) [TD05.7]	148	–
AGGAGGATAGTTCGGTGGCTGTTCAGGGTCTCCTCCT (ssDNA) [TD05.1]	53	–
AGGAGGATAGTTCGGTGGCTGTTCAGGGTCTCCTCCT (ssDNA, LNA at last four nucleotides (3' stem pyrimidines TCCT) [34,35,36,37 (LNA)]) [TD05.17]	–	Kd [3]: 43 nM
